From patent US20120288494A1 (published 2012)

T1: human IL-12 p70 (human, UniProt P29460 23-328; P29459 23-219)
T1 construct: also called hIL-12; IL-12 p70 (p40/p35)
T1 sequence 1: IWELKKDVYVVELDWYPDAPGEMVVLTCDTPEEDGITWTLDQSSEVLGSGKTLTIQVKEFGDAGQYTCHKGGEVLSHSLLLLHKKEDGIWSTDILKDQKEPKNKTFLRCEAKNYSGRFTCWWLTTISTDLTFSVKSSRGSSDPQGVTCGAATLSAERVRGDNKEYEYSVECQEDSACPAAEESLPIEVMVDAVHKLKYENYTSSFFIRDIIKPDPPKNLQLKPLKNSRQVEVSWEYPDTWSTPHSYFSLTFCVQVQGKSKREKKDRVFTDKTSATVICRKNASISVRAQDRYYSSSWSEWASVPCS
T1 sequence 2: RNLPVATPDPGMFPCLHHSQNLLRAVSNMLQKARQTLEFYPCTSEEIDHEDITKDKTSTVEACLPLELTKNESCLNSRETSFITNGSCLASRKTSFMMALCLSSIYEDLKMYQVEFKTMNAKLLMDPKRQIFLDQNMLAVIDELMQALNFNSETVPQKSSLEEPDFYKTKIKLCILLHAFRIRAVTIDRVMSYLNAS

T2: Human Chimera 9 (human IL-12 p40 G35D & G61L) (human, UniProt P29460 23-328)
T2 construct: Predominantly human p40 with rat residues; the two residues were only mutated together; also called Sites 9, 10
T2 chain: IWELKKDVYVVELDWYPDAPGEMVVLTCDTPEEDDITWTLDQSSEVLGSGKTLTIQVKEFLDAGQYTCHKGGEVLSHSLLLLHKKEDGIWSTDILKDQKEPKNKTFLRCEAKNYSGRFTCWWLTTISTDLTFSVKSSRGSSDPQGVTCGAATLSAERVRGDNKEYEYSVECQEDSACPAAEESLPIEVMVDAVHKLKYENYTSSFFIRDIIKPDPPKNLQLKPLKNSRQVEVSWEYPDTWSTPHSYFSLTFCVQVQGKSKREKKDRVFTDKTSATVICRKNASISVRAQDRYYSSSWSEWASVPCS

T3: Human Chimera 1 (human IL-12 p40 Y16R) (human, UniProt P29460 23-328)
T3 construct: Predominantly human p40 with the rat residue; HEK293.F supernatant; also called Site 7a
T3 sequence: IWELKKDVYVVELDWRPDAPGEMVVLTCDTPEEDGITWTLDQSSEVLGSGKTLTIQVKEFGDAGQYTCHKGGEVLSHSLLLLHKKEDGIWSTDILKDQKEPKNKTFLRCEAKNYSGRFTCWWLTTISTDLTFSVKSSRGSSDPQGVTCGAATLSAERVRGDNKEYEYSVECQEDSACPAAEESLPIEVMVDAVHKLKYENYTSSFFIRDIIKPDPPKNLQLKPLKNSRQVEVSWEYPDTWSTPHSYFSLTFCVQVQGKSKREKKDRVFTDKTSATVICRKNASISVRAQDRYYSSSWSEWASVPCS

T4: Human Chimera 2 (human IL-12 p40 D87N) (human, UniProt P29460 23-328)
T4 construct: Predominantly human p40 with the rat residue; HEK293.F supernatant; also called Site 7b
T4 sequence: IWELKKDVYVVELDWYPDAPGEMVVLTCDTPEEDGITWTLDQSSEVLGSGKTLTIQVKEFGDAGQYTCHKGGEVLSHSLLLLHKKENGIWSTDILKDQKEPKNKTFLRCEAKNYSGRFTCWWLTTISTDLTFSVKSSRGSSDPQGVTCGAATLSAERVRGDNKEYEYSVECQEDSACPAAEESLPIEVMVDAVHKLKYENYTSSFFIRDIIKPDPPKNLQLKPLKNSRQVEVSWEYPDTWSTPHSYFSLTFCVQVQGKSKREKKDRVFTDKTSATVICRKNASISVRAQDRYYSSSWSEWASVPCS


Tests used:
[1] = biological target: T1, human IL-12 p70; assay: method not stated in the sentence (Biacore named in Example 1A)
[2] = biological target: T2, Human Chimera 9 (human IL-12 p40 G35D & …); assay: SPR (Biacore), mAb immobilised; grade of the mutation's effect: - = no effect
Description: (§1) Specifically, antibody was covalently linked via free amine groups to the Biacore chip dextran matrix by first activating carboxyl groups on the matrix with 100 mM N-hydroxysuccinimide (NHS) and 400 mM N-Ethyl-N′-(3-dimethylaminopropyl)-carbodiimide hydrochloride (EDC). This was completed across four different flow cells. […] Typically, 5000 resonance units were immobilized. Unreacted matrix EDC-esters were deactivated by an injection of 1 M ethanolamine.
(§2) To ascertain the epitope pattern of several different monoclonal antibodies against IL-12p40 supernatant samples, a direct binding assay was conducted. Aliquots of recombinant human IL-12p40 (100 nM) were injected across covalently immobilized antibody on the Biacore dextran chip biosensor surface at a flow rate of 25 mL/min. Before injection of the antigen and immediately afterward, HBS-EP buffer alone flowed through each flow cell. […] The response was measured in Resonance Units (RU's). […] The covalently immobilized antibody-coupled surfaces were completely regenerated using 10 mM HCl (5 min contact time) and retained their full binding capacity over twenty cycles.

[3] = biological target: T3, Human Chimera 1 (human IL-12 p40 Y16R); assay: SPR (Biacore), mAb immobilised, chimera supernatant injected
Description: as §1, §2

[4] = biological target: T4, Human Chimera 2 (human IL-12 p40 D87N); assay: as above
Description: as §1, §2

[5] = biological target: T1, human IL-12 p70; assay: not stated in the sentence (FIG. 2)

| Kd [1] [nM] | binding result [2] | binding result [3] | binding result [4] | fold increase in efficacy over Joe 9 [5] [fold] | Binder |
| --- | --- | --- | --- | --- | --- |
| 0.102 | binds | no binding | no binding |  | J695 (antibody, IgG1, V domains shown, Recombinant human mAb from CHO cells, IgG1 heavy and lambda light chain constant regions; also called human mAb J695) VH: QVQLVESGGGVVQPGRSLRLSCAASGFTFSSYGMHWVRQAPGKGLEWVAFIRYDGSNKYYADSVKGRFTISRDNSKNTLYLQMNSLRAEDTAVYYCKTHGSHDNWGQGTMVTVSS VL: QSVLTQPPSVSGAPGQRVTISCSGSRSNIGSNTVKWYQQLPGTAPKLLIYYNDQRPSGVPDRFSGSKSGTSASLAITGLQAEDEADYYCQSYDRYTHPALLFGTGTKVTVLG |
|  |  |  |  | 1000 | 103-14 (antibody, V domains shown) VH: QVQLVQSGGGVVQPGRSLRLSCAASGFTFSSYGMHWVRQAPGKGLEWVAFIRYDGSNKYYADSVKGRFTISRDNSKNTLYLQMKSLRAEDTAVYYCKTHGSHDNWGQGTMVTVSS VL: SYVLTQPPSVSGTPGQRVTISCSGGRSNIGSNTVKWYQQLPGTAPKLLIYGNDQRPSGVPDRFSGSKSGTSASLAITGVQAEDEADYYCQSYDRGFTGSMVFGTGTKVTVL |
